The results in this text go back to publication PMC4869151 (ACS Infectious Diseases, 2016).

The target of test [1] is T1, recombinant HAstV-2 capsid protein (Human astrovirus 2 (HAstV-2), entry …, UniProt Q82446, strain). In words: pull-down.
Test [2] concerns the target T1, recombinant HAstV-2 capsid protein. In words: ELISA. A general note: In an ELISA, binding on a coated surface is turned into a signal by an enzyme label.

B1: recombinant single-chain variable fragment of the PL-2 antibody (scFv, V domains shown)
VH: DVQLKQSGPGLVQPSQSLSITCTVSGFSLIDYGVHWVRQSPGKGLEWLGVIWTGGSTDYNAAFISRLTISKDNSKSQVFFKMNSLQANDTGIYYCGRPYYGNVMDYWGQGTSVTVSS
VL: DIQMTQTTSSLSASLGDRVTISCRASQDISNYLNWYQQKPDGTVKLLIYYTSRLHSGVPSRFSGSGSGTDYSLTISNLEQEDIATYFCQQGNTFPPTFGGGTKLEIK
Take B1: the binding result in test [1] is on record as “binds”.

B2: monoclonal antibody PL-2 (antibody, V domains shown)
VH: DVQLKQSGPGLVQPSQSLSITCTVSGFSLIDYGVHWVRQSPGKGLEWLGVIWTGGSTDYNAAFISRLTISKDNSKSQVFFKMNSLQANDTGIYYCGRPYYGNVMDYWGQGTSVTVSS
VL: DIQMTQTTSSLSASLGDRVTISCRASQDISNYLNWYQQKPDGTVKLLIYYTSRLHSGVPSRFSGSGSGTDYSLTISNLEQEDIATYFCQQGNTFPPTFGGGTKLEIK
In the case of B2, the binding result in test [2] is given as “binds”.
